Assays:
[1] = system: total splenocytes and lymph node cells; assay: Ex vivo recall responses in adoptive transfer R-EAE; format: cell-based, mouse
Description: On day 45 (unless otherwise indicated) following cell transfer, spleen and cervical lymph nodes or CNS from 3 representative mice of each group were collected, and the total cells were activated ex vivo at 0.5×10^6 cells per well with either OVA323-339, PLP139-151, PLP178-191, MBP84-104 (20 ug/ml), or anti-CD3 (1 ug/ml). Two sets of cultures were set up side-by-side. One set was pulsed with 1 uCi of tritiated thymidine at 24 hours and harvested at 72 hours to determine cell proliferation. In the second set of cultures, supernatants were collected at 72 hours and tested for peptide-specific cytokine production as determined by LiquiChip.

SJL/J mice [2] = assay: BBB breakdown and inflammation by fluorescence molecular tomography in adoptive transfer R-EAE; format: in vivo, mouse; settings: Day +30, treatment from onset of remission
Description: […] At the time of imaging mice were anesthetized by administration of sodium pentobarbital (50 mg/kg) and then imaged using the FMT 2500 fluorescence molecular tomography in vivo imaging system. The data is presented as pmol of CathepsinB or AngioSense present within the brain (B) or spinal cord (C).
Commercially available near infrared (NIR) imaging agents were used to perform tomographic imaging (PerkinElmer Inc., Boston, Mass.). […] For the in vivo imaging, mice were injected intravenously with 4 nmol of NIR fluorescent agent 24 hrs prior to imaging, and imaged following the last treatment with Control Ig or C1ORF32 ECD-Fc (SEQ ID NO: 42) (Day +30 post-PLP139-151 blast cell transfer). At the time of imaging, mice were anesthetized by administration of sodium pentobarbital (50 mg/kg) and then imaged using the FMT 2500 fluorescence molecular tomography in vivo imaging system (PerkinElmer Inc., Boston, Mass.). […] Appropriate optical filters allowed the collection of both fluorescence and excitation datasets, and the multiple source-detector fluorescence projections were normalized to the paired collection of laser excitation data. […] The total amount of fluorescence (in pmoles) in different organ sites was automatically calculated relative to internal standards generated with known concentrations of appropriate FR/NIR dyes. […]

SJL/J mice [3] = assay: PLP139-151/CFA R-EAE upon IL-10 or TGFb blockade, clinical score; format: in vivo, mouse
Description: SJL/J mice were purchased from Harlan and primed with PLP139-151/CFA per the standard protocol, as described in 21.1.2 Methods, above). At disease remission the mice were split into 6 different treatment groups (n=5) as follows:
Mice were treated with Control Ig (mouse IgG2a) or C1ORF32 ECD-Fc (SEQ ID NO:42) at 100 ug/dose, each via an i.p. injection. This was followed with a second i.p. injection on the same day of either anti-IL-10 (rat IgG1), rat IgG1 (control Ab), or anti-TGFβ (mouse IgG1) at 100 ug/dose, each. All treatments were given 3×/wk for 2 wks, beginning on day +20 (onset of disease remission) and until day +31 post disease induction. All mice were followed for disease scores until day 44 post disease induction. On day 44, mice were sacrificed and analyzed for total T cell and Treg cell numbers in spleen and CNS.
At onset of disease remission (day +20 post disease induction) mice were allocated into 6 treatment groups (described above) and treated with either C1ORF32 ECD-Fc (SEQ ID NO:42) or control Ig (mIgG2a), and followed on the same day by treatment with anti-IL-10, anti-TGF-β, or rat IgG1 isotype control. All treatments were given at 100 ug/dose in 100 μl of PBS; via i.p. injection, at 3×/week for 2 weeks from onset of remission.
Mice were followed for disease and scored on a 0-5 scale per standard lab protocol as follows: 0, no abnormality; 1, limp tail; 2, limp tail and hind limb weakness; 3, hind limb paralysis; 4, hind limb paralysis and forelimb weakness; and 5, moribund. Dead mice were scored with a score of 5 on the day of death only, and were not further scored on the next days.

B1: C1ORF32 ECD-Fc (SEQ ID NO:42): fusion protein of human C1ORF32 ECD fused to mouse immunoglobulin Fc (human-mouse fusion protein) (protein)
chain: LQVTVPDKKKVAMLFQPTVLRCHFSTSSHQPAVVQWKFKSYCQDRMGESLGMSSTRAQSLSKRNLEWDPYLDCLDSRRTVRVVASKQGSTVTLGDFYRGREITIVHDADLQIGKLMWGDSGLYYCIITTPDDLEGKNEDSVELLVLGRTGLLADLLPSFAVEIMGSENLYFQGSGEPRGPTIKPCPPCKCPAPNLLGGPSVFIFPPKIKDVLMISLSPIVTCVVVDVSEDDPDVQISWFVNNVEVHTAQTQTHREDYNSTLRVVSALPIQHQDWMSGKEFKCKVNNKDLPAPIERTISKPKGSVRAPQVYVLPPPEEEMTKKQVTLTCMVTDFMPEDIYVEWTNNGKTELNYKNTEPVLDSDGSYFMYSKLRVEKKNWVERNSYSCSVVHEGLHNHHTTKSFSRTPGK
modifications: Fusion protein human C1ORF32-ECD fused to mouse IgG2a Fc
[1]; day 10, treatment from time of cell transfer
  recall responses of CNS cells to PLP139-151 and anti CD3: abolished
[1]; day 45, activation with PLP139-151 and PLP178-191
  GM-CSF secretion: inhibition of GM-CSF secretion
[1]; day 45, activation with anti-CD3, PLP139-151, and PLP178-191
  IFN-gamma and IL-17 secretion: inhibition
[1]; day 45, in response to PLP139-151
  splenocyte secretion of IL-4 and IL-10: increased splenocyte secretion
[1]; day 45, treatment from onset of remission
  recall responses: cellular proliferation of splenocytes and lymph node cells: decreased level of cellular proliferation
SJL/J mice [2]
  monocyte/macrophage activity in the brain and spinal cord (lysosomal CathepsinB activity): reduced lysosomal CathepsinB activity; however this effect did not reach statistical significance
SJL/J mice [2]; significant
  vascular leakage in the brain and spinal cord (AngioSense720 levels): decreased vascular leakage
SJL/J mice [3]; 100 ug/dose i.p. 3x/wk 2 wks from day +20, followed by rIgG1, vs control Abs only
  disease progression: pronounced inhibition of disease progression
SJL/J mice [3]; followed by anti-IL-10 100 ug/dose
  beneficial effect on disease with concomitant anti-IL-10: abrogated the beneficial effect
SJL/J mice [3]; followed by anti-TGFβ 100 ug/dose
  beneficial effect on disease with concomitant anti-TGFβ: abrogated the beneficial effect
SJL/J mice [3]; group C1ORF32 ECD-Fc and anti-TGFβ, day 28, n=5
  mice found dead: 1
SJL/J mice [3]; group C1ORF32 ECD-Fc in combination with anti-IL-10, day 28, n=5
  mice found dead: 2

— patent US20170275344A1, “POLYPEPTIDES AND USES THEREOF AS A DRUG FOR TREATMENT OF AUTOIMMUNE DISORDERS” (Compugen Ltd., priority 2014, published 2017)
